Test results taken from patent US20210386836.

BSA, P02769, sequence (P02769 25-607): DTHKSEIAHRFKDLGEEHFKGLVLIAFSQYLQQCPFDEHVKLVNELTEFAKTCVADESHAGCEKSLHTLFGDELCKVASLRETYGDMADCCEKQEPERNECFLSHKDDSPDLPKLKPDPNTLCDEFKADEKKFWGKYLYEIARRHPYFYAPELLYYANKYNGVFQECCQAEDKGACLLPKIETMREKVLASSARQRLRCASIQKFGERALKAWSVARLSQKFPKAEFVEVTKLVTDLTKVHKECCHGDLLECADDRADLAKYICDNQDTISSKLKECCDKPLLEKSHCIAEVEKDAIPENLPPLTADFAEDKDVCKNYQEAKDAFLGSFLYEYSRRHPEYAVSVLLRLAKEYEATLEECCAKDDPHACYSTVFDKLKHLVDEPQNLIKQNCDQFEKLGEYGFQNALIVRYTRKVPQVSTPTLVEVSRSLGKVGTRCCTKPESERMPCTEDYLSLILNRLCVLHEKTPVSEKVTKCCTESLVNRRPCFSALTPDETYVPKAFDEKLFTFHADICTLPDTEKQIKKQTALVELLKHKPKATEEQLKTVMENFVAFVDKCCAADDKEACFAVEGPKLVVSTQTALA
mouse C3a, P01027, sequence (P01027 671-748): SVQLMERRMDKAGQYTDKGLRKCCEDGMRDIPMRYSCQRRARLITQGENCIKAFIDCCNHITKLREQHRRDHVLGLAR

B1: PrtV(Pro-B) (protein)
chain: DTVNGSESVKTEATQASGSSVQDNATAKTTVTTNSNSSNNVSNVQTDTVKEAATSNVDSVASQNQATTAQQAKTTADTADQTVPPTTYKDHVKGNVQTAWDNGYKGQGMVVAVIDSGADTNHKDFSKAPESPAISKEDADKKISELGYGKYASEKFPFVYNYASRDNNWVKDDGPDASEHGQHVAGIIGADGQPNGNERYAVGVAPETQLMMMRVFNDQFADENTDDIAQAIYDAVKLGANVIQMSLGQGVAAANLNDVEQKAVEYATQHGVFVSISASNNGNSASVTGEEVPYKPGGADGNFEPFSSSTVANPGASRNAMTVAAENSVVGAGDDMADFSSWGPLQDFTLKPDVSAPGVSVTSTGNDNRYNTMSGTSMAGPFNAGVAALVMQRLKATTNLNGADLVQATKALIMNTAKPMTQQGYDTPVSPRRQGAGEIDAGAATESPVYVVAADGTSSVSLRKVGDSTQFALTFKNLSDKDQTYTFDDFGGGLTEVRDADTGTFHDVYLAGAHVYGNKTVTVKAGQSATYNFTLSLTGLKENQLVEGWLRFVGNDGQNQLVVPYLAYYGDMTSEDVFDKAANQEGTVYGGNYFVNEDNYPRGVADEDSLKALVNLEGNYNWQQVAKLYQDGKVAFSPNADGKSDLLKPYAFVKQNLKDLKVEVLDKSGKVVRVVADEQGLDKSYYESGVNKDVTLSVSMRNNPNTLAWDGKVYDDKAGEMVNAADGEYTYRYVATLYNDGVNKVQTADYPVVIDTTAPVLSNVKYDAATHTLSFDYKDTGSGFTDYSYAVVKVNDKTFGYKLNDGKNSKFLDAAKTSGTFKAVLGSDTLAALTAAKNALSVAVSDVADNTSTVTLLVNGNNDATTKVSVWNATNGLELDQSSPDYQAATSTYNLRGNATSDFYYNGALVQVDNSGNFVVPVSTSDTAVVFTSDAAGKNVVYKLNTATPKAVFAWQVNNTVKENFGIVLDTVVSNNKDDVVVQAAVTKGDNVEAYARDYFTGAVYKADVKDGLATFHVKVTNNSGRTVLLGWTEVVGPTFNDVQRTSANGVYLGVDTDTENPTPAPAFTSADQLGTNVVQEKADSATIGNPGDLPGHSLKDLTTRADANPDIHFDYLKDNDYNWVGAQAVKDGVYNPSTQVFTLTGKVDPNVKSLVVLGDSYNEDDPVNKVNLNSDGTFSFQFHTAPTSQRPVAYIYTKDDGSTTRGTMELILDTVLPTLSLNNVANLQLDSNGDYQVYTNNKDFSVSGEATDNLDGYRFFFNGDNDYREFHNSGVNFVAEAHQDGSTVTNPYPAYKFSKTFNLADATGETTHVYTLSVVDLTGNTVTRKFYVHY
In the case of B1, the “digestion (SDS-PAGE)” value (cytochrome C) is reported as “did not digest”, the “protein cleavage assay (SDS-PAGE)” value (ENA-78) is reported as “has activities against” and the “digestion (SDS-PAGE)” value (haemoglobin) is reported as “did not digest”. For the same protein, the “casein activity assay (SDS-PAGE)” value (α-casein) was “cleaving only α-casein in a limited manner”.

B2: PrtI(ProB) (protein)
chain: AIGETSVQNVKVSVAKNESDSQKFNNSQNLEQKTPQAAAANQNGSQVQNDHTETQLQNQQTTQSQVTQAHTEENNASSIPEPANQADHVKGNVQSAWDQGYKGQNTVVAVIDSGADTSHKDFQTMPSNPKLKQEDVQSKIDQQGYGKYVNEKFPYVYNYADRDNDYIKSDDNNQXNDSPHGQHVSGIIAADGHPEGDQQYVVGVAPEAQLMQLRVFGQFSDEKTDDVARAIYDATNLGADVIQMSLGQGVADQQLTNIEQKAVQYAIDHGVFVSISASNNGNSASVDNPSKVTAKGYGSGSEAGNYEPLNSGTVANPGASKNALTVAAETSGTGKDSDMASFSSWGPLSDFSLKPDLSAPGYQVVSTVNDNQYQTMSGTSMAGPFAAGSAALVIQRLKQTNPELKGAELVAATKALLMNSAKVQTQNGYTTPVSPRRQGAGQIDVGAATANPVYVTAADGTSSLSLRQVDEKTTFTLTFHNLTDQEQSYSFNDLGGGYTEQRDPDSGVFHEVQLAGAHVNGVGNFTLAPKEVKDLQYTLDLQGLNKNQPVEGWLHFTNDKDKSTVVVPYLAYYGDLTSENVFDQNANEEKPDIQGNRFVNENNYPLGVTDQESLKQLVNVDSDYNWQEVAKLYESGKVAFSPNDDHQSDLIKPYAYLKQNVKDLKVEILDAKGNVVRVVSDVQGVDKSYDESGVTKDASLSVSMRDNPDAFEWDGKVYDTKTGQMVTAPDGQYTYRFVATLWNEGPNQKQTADFPVVVDTQAPSLSVKYDSATHTLSGNYEDKGAGFTDYSYVTVQVNDKVFGYKLNEGESGFDNSEKTKGHFNFTLSSDALDALSGSLNKVSVTLSDVANNTTVKTVDVPAVKDQPAVSVWNATEGVEFNKNSKDYNKENDTYTLYGSAAQDFYLNGALVQVRDGKYEVPVKTTTQDLVFSTDQAGKNVLKSFTTFTPKAFFNWQNVDGFDGNFGVNIYSVKTNDPNNAVVQAAVPLGKNVKAYAQDYFTGEVYKGQVENGVATFHVHTSINQGEDGIFKRALLTGWSEVDGPAYNDKQVTSKAGVASSNHLGVYYTTDKVNRKVYTDRADLGVDVQDEAADLSSFGPTAYPGHALADLTTRTDPNPAIHFDYLNDNDTTRFGQNAVTDGYYDSVTKKFTVTGHVDPEVKSLTVLGDSSDENAPQNQVKLGKDGKFSFSFTTENVGQRPVAYIYTDQNGQKVRGTLNVVLDTVAPTLNVDQVNGNELEVKTNNPLFKLSGVVNDNLDGYRLYVNGNNIYREFLNSGYNKLAGLNTDGTDVNPYGPHNFEESFNLNDDNNQPTTHVFTIYVVDQVGNKVEKKIAVNYDPDYVA
modifications: not fully specified; X: residue not identified in the source
With B2 the “digestion (SDS-PAGE)” value (BSA, P02769) was “did not digest”, the “protein cleavage assay (SDS-PAGE)” value (IL-10) was “has activities against” and the “protein cleavage assay (SDS-PAGE)” value (mouse C3a, P01027) was “has activities against”. For the same protein, the “digestion (SDS-PAGE)” value (Factor XIII) was “did not digest”.
